From paper PMC4117426, “SlmA Antagonism of FtsZ Assembly Employs a Two-pronged Mechanism like MinCD” (PLoS Genetics, 2014) come the findings set out here.

What is called Kd is the concentration at which binding is half-saturated. A high value points to a looser complex. One may read the koff as the first-order rate constant of dissociation. The low end stands for slow dissociation, the high end for fast dissociation. Broadly, the kon is the second-order rate constant of association. Low readings indicate slower complex formation, high ones faster complex formation.

The labels stand for the following.
B1: FtsZ (natural protein, E. coli, UniProt P0A9A6 1-383, looked up)
chain: MFEPMELTNDAVIKVIGVGGGGGNAVEHMVRERIEGVEFFAVNTDAQALRKTAVGQTIQIGSGITKGLGAGANPEVGRNAADEDRDALRAALEGADMVFIAAGMGGGTGTGAAPVVAEVAKDLGILTVAVVTKPFNFEGKKRMAFAEQGITELSKHVDSLITIPNDKLLKVLGRGISLLDAFGAANDVLKGAVQGIAELITRPGLMNVDFADVRTVMSEMGYAMMGSGVASGEDRAEEAAEMAISSPLLEDIDLSGARGVLVNITAGFDLRLDEFETVGNTIRAFASDNATVVIGTSLDPDMNDELRVTVVATGIGMDKRPEITLVTNKQVQQPVMDRYQQHGMAPLTQEQKPVAKVVNDNAPQTAKEPDYLDIPAFLRKQAD
notes: FtsZ, E. coli, untagged, from pSEB160; also called FtsZ-WT; WT FtsZ
B4: 6×His-FtsZ (natural protein, E. coli, UniProt P0A9A6 1-383, looked up)
chain: MFEPMELTNDAVIKVIGVGGGGGNAVEHMVRERIEGVEFFAVNTDAQALRKTAVGQTIQIGSGITKGLGAGANPEVGRNAADEDRDALRAALEGADMVFIAAGMGGGTGTGAAPVVAEVAKDLGILTVAVVTKPFNFEGKKRMAFAEQGITELSKHVDSLITIPNDKLLKVLGRGISLLDAFGAANDVLKGAVQGIAELITRPGLMNVDFADVRTVMSEMGYAMMGSGVASGEDRAEEAAEMAISSPLLEDIDLSGARGVLVNITAGFDLRLDEFETVGNTIRAFASDNATVVIGTSLDPDMNDELRVTVVATGIGMDKRPEITLVTNKQVQQPVMDRYQQHGMAPLTQEQKPVAKVVNDNAPQTAKEPDYLDIPAFLRKQAD
notes: FtsZ, E. coli; 6×His-tagged ftsZ amplified from pSEB160 (pSD119); By the printed primer the six His codons follow the start codon and precede Phe2; also called 6×His-tagged FtsZ-FL; source: E. coli JS238 with pSD119, purified (Ni-NTA); not shown: His6, N-terminal, kept

Data set [1] concerns the molecule itself. Description: negative-stain electron microscopy of polymers; FtsZ or variant 2 µM with 1 mM GTP in Pol buffer (50 mM HEPES-NaOH pH 8.0, 200 mM KCl, 10 mM MgCl2), room temperature 5 min, 1% uranyl acetate; self-assembly into filaments.
The target in data set [2] is B4. In words: BLI; 6×His-FtsZ or variant (1 µM) immobilised on Ni-NTA tips; untagged SlmA preincubated with SBS17-30mer DNA in solution; 1× Pol buffer, room temperature; global fitting. The conditions noted are these: both partners purified. A general note: Biolayer interferometry detects binding as a change in optical thickness at a sensor tip.
Another data set deals with T1, 6×His-FtsZ-K190V (E. coli, UniProt P0A9A6 1-383, K190V).
T1 construct: FtsZ, E. coli, His-tagged, with K190V; the construct is not described in the methods; Probably a derivative of pSD119 (N-terminal His6, full length)
T1 sequence (looked up): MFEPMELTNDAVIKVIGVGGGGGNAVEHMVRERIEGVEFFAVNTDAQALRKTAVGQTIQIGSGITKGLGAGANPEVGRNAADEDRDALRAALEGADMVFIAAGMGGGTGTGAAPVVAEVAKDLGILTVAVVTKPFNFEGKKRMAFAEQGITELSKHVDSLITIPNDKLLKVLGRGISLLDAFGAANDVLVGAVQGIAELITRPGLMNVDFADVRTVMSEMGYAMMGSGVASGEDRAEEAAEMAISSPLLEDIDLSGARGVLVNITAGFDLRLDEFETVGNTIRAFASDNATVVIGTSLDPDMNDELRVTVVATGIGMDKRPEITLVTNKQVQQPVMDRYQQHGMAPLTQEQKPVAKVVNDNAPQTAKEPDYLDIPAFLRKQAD
Described as above. The conditions noted are these: both partners purified.

Data set [3] has as its target T2, 6×His-FtsZ (E. coli, UniProt P0A9A6 1-383).
T2 construct: FtsZ of E. coli, full length (FtsZ-FL), with an N-terminal 6×His tag, from pSD119; By the primer His-FtsZ-SstI the chain begins M-HHHHHH and goes on with F2 of FtsZ (FEPMELT...); also called 6×His-tagged FtsZ-FL; source: E. coli JS238 with pSD119, arabinose induced, purified (Ni-NTA); not shown: His6, N-terminal, kept
T2 sequence (looked up): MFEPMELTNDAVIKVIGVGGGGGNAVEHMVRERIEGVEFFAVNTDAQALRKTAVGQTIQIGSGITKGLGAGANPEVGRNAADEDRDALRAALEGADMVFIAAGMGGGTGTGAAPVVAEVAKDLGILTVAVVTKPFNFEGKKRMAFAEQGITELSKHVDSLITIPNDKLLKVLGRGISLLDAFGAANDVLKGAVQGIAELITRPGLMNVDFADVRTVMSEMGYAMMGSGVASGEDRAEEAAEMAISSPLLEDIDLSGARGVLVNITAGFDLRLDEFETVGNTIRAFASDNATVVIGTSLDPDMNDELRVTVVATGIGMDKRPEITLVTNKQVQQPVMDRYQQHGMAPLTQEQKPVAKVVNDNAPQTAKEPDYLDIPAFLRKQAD
Description: BLI; 6×His-FtsZ (loaded at 1 µM) immobilised on Ni-NTA biosensor; untagged SlmA without SBS DNA in solution; 1× Pol buffer (50 mM HEPES-NaOH pH 8.0, 200 mM KCl, 10 mM MgCl2), room temperature; global fit (GraphPad Prism 5). The conditions noted are these: both partners purified.

The target of data set [4] is T2, 6×His-FtsZ. In words: BLI; 6×His-FtsZ (loaded at 1 µM) immobilised on Ni-NTA biosensor; untagged SlmA preincubated with SBS-14mer DNA in solution; 1× Pol buffer (50 mM HEPES-NaOH pH 8.0, 200 mM KCl, 10 mM MgCl2), room temperature; global fit (GraphPad Prism 5). The conditions noted are these: both partners purified.
The target in data set [5] is T2, 6×His-FtsZ. Description: BLI; 6×His-FtsZ (loaded at 1 µM) immobilised on Ni-NTA biosensor; untagged SlmA preincubated with SBS-18mer DNA in solution; 1× Pol buffer (50 mM HEPES-NaOH pH 8.0, 200 mM KCl, 10 mM MgCl2), room temperature; global fit (GraphPad Prism 5). The conditions noted are these: both partners purified.
The target in data set [6] is T2, 6×His-FtsZ. In words: BLI; 6×His-FtsZ (loaded at 1 µM) immobilised on Ni-NTA biosensor; untagged SlmA preincubated with SBS17-20mer DNA in solution; 1× Pol buffer (50 mM HEPES-NaOH pH 8.0, 200 mM KCl, 10 mM MgCl2), room temperature; global fit (GraphPad Prism 5). Conditions: both partners purified.
Data set [7] has as its target T2, 6×His-FtsZ. Description: BLI; 6×His-FtsZ (loaded at 1 µM) immobilised on Ni-NTA biosensor; untagged SlmA preincubated with SBS17-30mer DNA in solution; 1× Pol buffer (50 mM HEPES-NaOH pH 8.0, 200 mM KCl, 10 mM MgCl2), room temperature; global fit (GraphPad Prism 5). Conditions: both partners purified.
The data set “FtsZ” has as its target B1. In words: BLI; competition: SlmA/SBS17-30mer on streptavidin tips; 4 µM FtsZ preincubated with various concentrations of ZipA185-328 (with GDP). Conditions: both partners purified.

As to B1, the binding result in [1] was “binds”.

B2: FtsZ-K190V (natural protein, E. coli, UniProt P0A9A6 1-383, looked up)
chain: MFEPMELTNDAVIKVIGVGGGGGNAVEHMVRERIEGVEFFAVNTDAQALRKTAVGQTIQIGSGITKGLGAGANPEVGRNAADEDRDALRAALEGADMVFIAAGMGGGTGTGAAPVVAEVAKDLGILTVAVVTKPFNFEGKKRMAFAEQGITELSKHVDSLITIPNDKLLKVLGRGISLLDAFGAANDVLVGAVQGIAELITRPGLMNVDFADVRTVMSEMGYAMMGSGVASGEDRAEEAAEMAISSPLLEDIDLSGARGVLVNITAGFDLRLDEFETVGNTIRAFASDNATVVIGTSLDPDMNDELRVTVVATGIGMDKRPEITLVTNKQVQQPVMDRYQQHGMAPLTQEQKPVAKVVNDNAPQTAKEPDYLDIPAFLRKQAD
notes: FtsZ, E. coli, untagged, with K190V; pSEB160 derivative
Consider B2, for which, in data set [1], the binding result is “binds”.

B3: FtsZ-D86N (natural protein, E. coli, UniProt P0A9A6 1-383, looked up)
chain: MFEPMELTNDAVIKVIGVGGGGGNAVEHMVRERIEGVEFFAVNTDAQALRKTAVGQTIQIGSGITKGLGAGANPEVGRNAADEDRNALRAALEGADMVFIAAGMGGGTGTGAAPVVAEVAKDLGILTVAVVTKPFNFEGKKRMAFAEQGITELSKHVDSLITIPNDKLLKVLGRGISLLDAFGAANDVLKGAVQGIAELITRPGLMNVDFADVRTVMSEMGYAMMGSGVASGEDRAEEAAEMAISSPLLEDIDLSGARGVLVNITAGFDLRLDEFETVGNTIRAFASDNATVVIGTSLDPDMNDELRVTVVATGIGMDKRPEITLVTNKQVQQPVMDRYQQHGMAPLTQEQKPVAKVVNDNAPQTAKEPDYLDIPAFLRKQAD
notes: FtsZ, E. coli, untagged, with D86N; pSEB160 derivative
Take B3: the binding result in [1] is recorded as “binds”.

On to B4, for which, in data set [1], the binding result is given as “binds”.

B5: untagged SlmA (natural protein, E. coli, UniProt P0C093 1-198, looked up)
chain: MAEKQTAKRNRREEILQSLALMLESSDGSQRITTAKLAASVGVSEAALYRHFPSKTRMFDSLIEFIEDSLITRINLILKDEKDTTARLRLIVLLLLGFGERNPGLTRILTGHALMFEQDRLQGRINQLFERIEAQLRQVLREKRMREGEGYTTDETLLASQILAFCEGMLSRFVRSEFKYRPTDDFDARWPLIAAQLQ
notes: SlmA, E. coli; Used with or without SBS DNA on 6×His-FtsZ tips; also called SlmA (untagged version); source: E. coli BL21 (λDE3)/pLysS with pSUMO-SlmA, purified (Ni-NTA; tag cleaved with Ulp1, flow-through collected)
In turn, B5 gave a dissociation constant (Kd) with 6×His-FtsZ [2] of 210 nM. Besides, the binding result with 6×His-FtsZ-K190V is listed as “binds”.

B6: SlmA (untagged version) (natural protein, E. coli, UniProt P0C093 1-198, looked up)
chain: MAEKQTAKRNRREEILQSLALMLESSDGSQRITTAKLAASVGVSEAALYRHFPSKTRMFDSLIEFIEDSLITRINLILKDEKDTTARLRLIVLLLLGFGERNPGLTRILTGHALMFEQDRLQGRINQLFERIEAQLRQVLREKRMREGEGYTTDETLLASQILAFCEGMLSRFVRSEFKYRPTDDFDARWPLIAAQLQ
notes: SlmA of E. coli; The forward primer slmA-SUMO-F begins at the second codon (GCA, Ala2), so the cleaved protein probably lacks the first methionine; also called SlmA-WT; nucleoid occlusion factor SlmA; source: E. coli BL21 (λDE3)/pLysS with pSUMO-SlmA, purified (Ni-NTA; H-SUMO tag cleaved with Ulp1, tag and protease removed on Ni-NTA); not shown: His-SUMO (H-SUMO), N-terminal, cleaved
For B6, the Kd with 6×His-FtsZ [3] was found to be 21000 nM; in the data set with 6×His-FtsZ [4] it was 206 nM; with 6×His-FtsZ [5], 309 nM; with 6×His-FtsZ [6], 789 nM. The koff with 6×His-FtsZ [3] was found to be 0.149 s⁻¹; in the data set with 6×His-FtsZ [4], 0.0057 s⁻¹; in the data set with 6×His-FtsZ [5] it was 0.0067 s⁻¹; with 6×His-FtsZ [6] it was 0.0143 s⁻¹; with 6×His-FtsZ [7] it was 0.0155 s⁻¹. The kon in the data set with 6×His-FtsZ [3] is 7100 M⁻¹ s⁻¹; with 6×His-FtsZ [4], 27500 M⁻¹ s⁻¹; in the data set with 6×His-FtsZ [5], 21600 M⁻¹ s⁻¹; with 6×His-FtsZ [6] it was 18100 M⁻¹ s⁻¹; with 6×His-FtsZ [7], 74000 M⁻¹ s⁻¹.

B7: 6×His-FtsZ360 (domain or fragment, E. coli, UniProt P0A9A6 1-360, looked up)
chain: MFEPMELTNDAVIKVIGVGGGGGNAVEHMVRERIEGVEFFAVNTDAQALRKTAVGQTIQIGSGITKGLGAGANPEVGRNAADEDRDALRAALEGADMVFIAAGMGGGTGTGAAPVVAEVAKDLGILTVAVVTKPFNFEGKKRMAFAEQGITELSKHVDSLITIPNDKLLKVLGRGISLLDAFGAANDVLKGAVQGIAELITRPGLMNVDFADVRTVMSEMGYAMMGSGVASGEDRAEEAAEMAISSPLLEDIDLSGARGVLVNITAGFDLRLDEFETVGNTIRAFASDNATVVIGTSLDPDMNDELRVTVVATGIGMDKRPEITLVTNKQVQQPVMDRYQQHGMAPLTQEQKPVAKVVND
notes: FtsZ, E. coli, truncated by two stop codons after codon 360; lacks the conserved C-terminal tail; source: E. coli JS238 with pSD119-Z360, purified (Ni-NTA); not shown: His6, N-terminal, kept
With B7, the binding result in data set [1] was “binds”.

B8: ZipA_(185–328) (domain or fragment)
chain: not shown
notes: amplified from chromosomal DNA; also called C-terminal domain of ZipA; source: expressed from pSD198 (pQE80 derivative)
In the case of B8, the “percent decrease of the FtsZ binding signal on SlmA/SBS17-30mer at a 1:1 ratio of FtsZ to ZipA185-328” value with FtsZ is approximately 30%.
